This is an account of results in paper PMC4210639 (Neuron, 2014).

The target of the assay is T1, FLRT3^LRR (leucine-rich repeat domain of mouse FLRT3) (mouse, UniProt Q8BGT1 29-359).
T1 sequence: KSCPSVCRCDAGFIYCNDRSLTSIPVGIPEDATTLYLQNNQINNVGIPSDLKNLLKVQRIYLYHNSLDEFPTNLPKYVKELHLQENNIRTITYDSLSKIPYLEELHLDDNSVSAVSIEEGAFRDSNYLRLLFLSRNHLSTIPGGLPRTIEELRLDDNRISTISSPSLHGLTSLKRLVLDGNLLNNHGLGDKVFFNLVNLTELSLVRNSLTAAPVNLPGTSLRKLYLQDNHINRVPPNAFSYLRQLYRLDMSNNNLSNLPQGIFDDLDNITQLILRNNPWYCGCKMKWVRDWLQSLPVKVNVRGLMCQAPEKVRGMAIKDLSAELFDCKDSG
Nature of the assay: SPR. (In SPR one partner is held on a chip, and binding of the other changes the refractive index at the surface.)

B1: Unc5A^ecto (human Unc5A ectodomain) (domain or fragment)
chain: not shown
On to B1, for which the binding result was “binds”.
